The text below walks through data of a protein production outcome set (Wang et al. 2014).

A short description of this data set: label from the status in PepcDB records.

Take “MKVLLVLTDAYSDCEKAITYAVNFSEKLGAELDILAVLEDVYNLERANVTFGLPFPPEIKEESKKRIERRLREVWEKLTGSTEIPGVEYRIGPLSEEVKKFVEGKGYELVVWACYPSAYLCKVIDGLNLASLIVK”: the protein production result is “not failed”. Under “MKVMIEKILLVQTLKRLPRMGWLIKGVQEPESIADHSFGVAFITLVLADVLEKRGKRIDVEKALKMAIVHDLAEAIITDIPLSAQEFVDKDKAEALVFKKVFPEFYELYREYQECSSPEAQLVRIADKLDMILQAYQYELSGNKNLDEFWEAIEEIKRLELSKYLEDILNSVGRLKA” stands “not failed”.

For the sequence “MKVSLGNGEMGVSAHLQPCKAGTTRFFTSNTHSSVVLQGFDQLRIEGLLCDVTLVPGDGDEIFPVHRAMMASASDYFKAMFTGGMKEQDLMCIKLHGVNKVGLKKIIDFIYTAKLSLNMDNLQDTLEAASFLQILPVLDFCKVFLISGVSLDNCVEVGRIANTYNLIEVDKYVNNFILKNFPALLSTGEFLKLPFERLAFVLSSNSLKHCTELELFKAACRWLRLEDPRMDYAAKLMKNIRFPLMTPQDLINYVQTVDFMRTDNTCVNLLLEASNYQMMPYMQPVMQSDRTAIRSDSTHLVTLGGVLRQQLVVSKELRMYDERAQEWRSLAPMDAPRYQHGIAVIGNFLYVVGGQSNYDTKGKTAVDTVFRFDPRYNKWMQVASLNEKRTFFHLSALKGHLYAVGGRSAAGELATVECYNPRMNEWSYVAKMSEPHYGHAGTVYGGLMYISGGITHDTFQNELMCFDPDTDKWMQKAPMTTVRGLHCMCTVGDKLYVIGGNHFRGTSDYDDVLSCEYYSPTLDQWTPIAAMLRGQSDVGVAVFENKIYVVGGYSWNNRCMVEIVQKYDPEKDEWHKVFDLPESLGGIRACTLTVFPPEENPGSPSRESPLSAPSDHS”, the protein production result was “failed”. Under “MKVTQLSSETLDRAHERFEETLAQMTVAEANTMPAPLIKSVTWLMWHTARELDLQISALNHSDPLWLSQHWTEKFALDLPDETEDWHHTPEEAAKVVVAEKQLLSDYLAASVALTKSYLDQIKEEQLSDVIDKNWTPPVTRQVRLVSAIDDAVMHSGQAVYTRRLVIGK” stands “not failed”; under “MKVTVTTLELKDKITIASKALAKKSVKPILAGFLFEVKDGNFYICATDLETGVKATVNAAEISGEARFVVPGDVIQKMVKVLPDEITELSLEGDALVISSGSTVFRITTMPADEFPEITPAESGITFEVDTSLLEEMVEKVIFAAAKDEFMRNLNGVFWELHKNLLRLVASDGFRLALAEEQIENEEEASFLLSLKSMKEVQNVLDNTTEPTITVRYDGRRVSLSTNDVETVMRVVDAEFPDYKRVIPETFKTKVVVSRKELRESLKRVMVIASKGSESVKFEIEENVMRLVSKSPDYGEVVDEVEVQKEGEDLVIAFNPKFIEDVLKHIETEEIEMNFVDSTSPCQINPLDISGYLYIVMPIRLA”, “not failed”. Under “MKVVLVGATGFVGRHLLAALHAAGHQLIATSRRPQPQGLPGVEWRQLDLDCLGREPQPFALPADTDLLINAAGLLSTDARALSLTQDLGTRALFDLAAARGVRVLQISALGAGILPQVPFLASKAAADDYLLQLGVPAVVLRPSLVLGAGGASSGWLTRLSPWPLIPLLSAKAQMQPLHIEDLSAAVLALLRQWPQESMVLPLVGPERMTMAQLLDRLRSAQGWAPARYFKLPAVLLRLVAAAGDRLGWRALNRQSLAMARHDNLADPQVLASVCGYHAAPLAARLQDWPQAAQSTQLALRPLLLAVMVLIWLGTALVCIGPGYAWGLRIMAEAGVQGIWAALAVIGGSLCDALLGVGLLLRRWRRRALQAQLGLMLGYTLIISLILPHFWFDPYAAVAKNLVLMVATLWLLWTEPHQ” stands “failed”. For the sequence “MKVWPVKHSPLLRQPERFIARSELQALIRNVTQNLVNIKDESGQFLLRLDDGRVIDTKGWAGWEWTHGVGLYGIYQYYQQTGDIEMRDIIDRWFADRFAEGATTKNVNTMAPFLTLAYRFEETGRMAYLPWLESWAEWAMHEMPRTEQGGMQHMTLAEENHQQMWDDTLMMTVLPLAKIGKLLNRPQYVEEATYQFLLHVQNLMDRETGLWFHGWNYEGRHNFARARWARGNSWLTMVIPDFLELVDLPEGNAVRRYLITVLDAQIAALAECQDDSGLWHTLLDDPHSYLEASATAGFAYGILKAVRKRYVGQHYAGVAEKAIRGIVQNISPQGELLQTSFGTGMGSDLDFYRQIPLTSMPYGQAMAILCLTEYLRKYF”, the protein production entry is given as “not failed”. With “MKVYLESFGCSASQASAEIMKASIGKLGHELLSPENAGQAEVYICNSCTVKYTTEQKILYKIRSMGEKGVQVIVSGCMPEVQLEDILHANPEAHILGVNAVSRLGDLLSTIEQRKKTGIPGGERLEIRTSEPQGFLNVPRERSNPNIHICQISQGCNFACSYCIVKHARGKLLSFPPEEIIEDIRSAVADGCREIWLTSQDDSQYGMDTGVKLPELLRAISEIPGDFKVRVGMMNPFSVLPILDDLVDAFDSDKIFKLLHLPIQSASHSVLKKMNRLHKMDSVDEIITKFRAHFEDLSLFTDIIVGFCDETDEDFEETIEWVKKYRPEKINISRYSPRPHTKAFSFRNLDSRISVKRSHQLHKVCEQIKIESKNEMIGWKGRVFVSKYTEIGDVLTRTDSYRPVVISGSDLRPGEYAEVKITGAKPGYFLGKLVSLEHHHHHH”, the protein production entry is reported as “not failed”. As for “MKWDKKWNDGIILALETAFISWFTYAFLYQNYLLYKWHRGSPLPSKIPFVLAGIFVGLAFLAWKGRNLLKPLRENNGGALDERS”, the entry is “failed”; as for “MKWNLDPSHTSIDFKVRHMGIASVRGSLKVLSGSVETDEAGRPIQVEAVIDAASIATGEPQRDGHLRSADFLHAEQYPEIRFVSTQIEPLGGNRYRIQGNLTIRDITKPVTLEAEVSAPIKDPWGMQRVAASASGQINRKDWNLTWNQVLELGALLVGEEVKFNLEVEAVAPAPVAAQ”, “not failed”. Under “MKYEYPAELPVSAARDEIASAVKRSQVVIVSGQTGSGKTTQLPKILLELGRGTHGKQIVHTQPRRIAARTVAERIASEMGVKLGDEVGYQVRFTDESSPGTRLRVVTDGILLAQIQRDPKLTRYDTIIIDEAHERSLNIDFLLGYLTALLPQRRDLKLIITSATIDSVKFQEHFEHALHEKVPVIEVSGRTFPVQVVYEPLGTAPALMREVPGFAVGARPGDADYDELASAIAESDSDRPRGRSGASYADDGITDMPTAVARACAELVIHSSHERGPRDILVFASGERDIHEFEAALRHHYGPRADDMRRPDAIEIMPLFARLSAADQHKVFESHLHQRIVIATNVAETSLTVPGIRYVVDPGSARISRYSKTAKVQRLPIEPISQASADQRSGRCGRVADGIAIRLYSREDYETRPRFTEPEILRTSLGAVVLHMLSVGVARTAEDVTNFGFIDPPDMKAVSDGFNELTELKAIGRKRGEVTLTHTGRQLARIPIDVRLGRMVIEAAKTGSPNLLAQVLVVVAFLSLQDPRERPDDKREDADRIHNRYADETSDFLTALNIWDRVFQADGDPSNNALRRICKTEYFSWLRMRQWKDLVSQLRQMCKELKFKVGDPLPASRPGLEIRQLPLNQQAAHSLCCAWDADGIHKSMLAGLLSMMGMQVVREPKASDFAGLTGSARARAMKRAQKQSKNDYQGARGTRFALFPASAVAKKTPSWVMSTELVETSRLWARYSAAIDPAWAEPLAGQLTRTTYAEPHWSGSRGSAVATARVLLYGLPIVQDRAVQWGRINPLEARDFLIRQGLVEGDIQQRFSYDDFVGKNRDILEDAADDASRTRQLADTVSDEDLFDFYNAVIPNDVTSVADLAKWWKSEHDRQPNLLDFDPAKVERLASSDSVSLDDYPDHWHTTGSDGQPIDLRLSYVYDPADPADGVTVHVPLKALSRITPDQFTWNVPGLLDELILSMIKALPKQLRVQFVPAPDAARAIRDWIDEHYPDLPGSGSQQKPNLPPVDEDGTTVGWPDLAHVFTKAAIATKGAQIHPEVLGPELVERLSPYLRVTFSVEQQLPAGKHPRGRRHARGPIKVLGVSKDLKALQRKFAAQAEASARQMVKKQADQAGEQGKLVSQANLLHKAGATTESRATMLWRGALDALRLPAERISSRWLGTEALMLASAPYKSTKDLVEDLQLATVKRLMPNVDRLSDDEALANAVLDVREVYEDTVYQVAHDVIAVLKAYAEVDKATGGKADLPMLSVLQSIRDHIATLVYPGFIGRTPPDALKSLSRYLRADLSRLNKAKTDKNRDVKWAWQADEARQVVDKALARAKAEPAGPKHEALMKQAEQARWMLEEFYVSLWAQELGTKGPASLNRIKKALA” stands “failed”.
